Patent US20130028888A1 (AERES BIOMEDICAL, published 2013)

Tests used:
[1] = molecular target: T1, human CD22 expressed on the cell surface (human, UniProt P20273 20-847); assay: cell ELISA on BHK cells expressing human CD22, COS-7 supernatant, OD 655 nm
T1 construct: whole, on cells; One entry covers all cell-surface formats (BHK-CD22, CHO, COS, Daudi, human B cells); also called hCD22; BHK-CD22

[2] = molecular target: T1, human CD22 expressed on the cell surface; assay: cell ELISA on BHK cells expressing human CD22, OD 655 nm
[3] = molecular target: T1, human CD22 expressed on the cell surface; assay: cell ELISA on BHK cells expressing human CD22, goat anti-mouse Ig-HRP, OD 450 nm
Description: The BHK-CD22 binding assay was used to test the binding activity of the chHB227 antibody in the transiently transformed COS 7 culture supernatants. A goat anti-human Ig-HRP conjugate (Sigma Chemicals) was used to detect binding of chHB22.7 mAb while a goat anti-mouse Ig-HRP conjugate (Southern Biotechnology) was used to detect binding of the parental mouse HB22.7 mAb. The bound HRP conjugates were exposed to the substrate o-phenyldiamine (OPD) and the resulting products detected at 450 nm.

[4] = molecular target: T1, human CD22 expressed on the cell surface; assay: BHK-CD22 cell ELISA

Row | Binder | EC50 (read off the curve) [1] [µg/mL] | further results
1 | humanized antibody HB227RHF + HB227RKC (antibody, human IgG1, V domains shown, Human IgG1/kappa constants; COS-7 supernatant; also called RHF+RKC; humanized (RHF+RKC) antibody) VH: QVQLQESGPALVKPTQTLTLTCTVSGFSLSDYGVNWIRQPPGKALEWLGIIWGDGRTDYNSALKSRLSISKDNSKNQVVLRMTNVDPVDTATYFCARAPGNRAMEYWGQGTVVTVSS VL: DIVMTQSPSSLSASVGDRVTITCKASQSVTNDVAWYQQKPGKAPKLLIYYASNRYTGVPDRFSGSGYGTDFTLTISSLQPEDFATYFCQQDYRSPWTFGGGTKVEIKR | ~0.2 | –
2 | chimeric HB22.7 antibody chHB227 (chH + chL) (antibody, human IgG1, V domains shown, Mouse HB22.7 variable regions on human IgG1 and kappa constant regions (vectors pG1D20, pKN10); Transient COS-7 supernatant; also called CH+CK; fully chimeric antibody) VH: QVQLKESGPGLVAPSQSLSITCTVSGFSLSDYGVNWVRQIPGKGLEWLGIIWGDGRTDYNSALKSRLNISKDNSKSQVFLKMNSLKADDTARYYCARAPGNRAMEYWGQGTSVTVS VL: SIVMTQTPKFLLVSAGDRITLTCKASQSVTNDVAWYQQKPGQSPKLLIYYASNRYTGVPDRFTGSGYGTDFTFTISTVQAEDLAVYFCQQDYRSPWTFGGGTKLEI | ~0.1 | EC50 (read off the curve) [2]: ~0.3 µg/mL
3 | parental mouse monoclonal anti-CD22 antibody HB22.7 (antibody, V domains shown, Mouse hybridoma antibody (ATCC HB11347); Labelled with Alexa-fluor 488 or 647 in some cell assays; also called murine HB22.7; mouse HB22.7) VH: QVQLKESGPGLVAPSQSLSITCTVSGFSLSDYGVNWVRQIPGKGLEWLGIIWGDGRTDYNSALKSRLNISKDNSKSQVFLKMNSLKADDTARYYCARAPGNRAMEYWGQGTSVTVS VL: SIVMTQTPKFLLVSAGDRITLTCKASQSVTNDVAWYQQKPGQSPKLLIYYASNRYTGVPDRFTGSGYGTDFTFTISTVQAEDLAVYFCQQDYRSPWTFGGGTKLEI | – | EC50 (read off the curve) [3]: ~0.08 µg/mL
4 | HB227RHC heavy chain + chimeric HB22.7 light chain (chL) (antibody, human IgG1, V domains shown, Human IgG1/kappa constants; COS-7 supernatant; also called RHC+chL) VH: QVQLQESGPALVKPTQTLTLTCTFSGFSLSDYGVNWIRQPPGKALEWLGIIWGDGRTDYNSALKSRLSISKDNSKNQVVLRMTNVDPVDTATYFCARAPGNRAMEYWGQGTVVTVSS VL: SIVMTQTPKFLLVSAGDRITLTCKASQSVTNDVAWYQQKPGQSPKLLIYYASNRYTGVPDRFTGSGYGTDFTFTISTVQAEDLAVYFCQQDYRSPWTFGGGTKLEI | – | fold binding relative to chimeric light chain with HB227RHB [4]: ~2 fold
5 | HB227RHF heavy chain + chimeric HB22.7 light chain (chL) (antibody, human IgG1, V domains shown, Human IgG1/kappa constants; COS-7 supernatant; also called HB227RHF+chL; RHF+chL) VH: QVQLQESGPALVKPTQTLTLTCTVSGFSLSDYGVNWIRQPPGKALEWLGIIWGDGRTDYNSALKSRLSISKDNSKNQVVLRMTNVDPVDTATYFCARAPGNRAMEYWGQGTVVTVSS VL: SIVMTQTPKFLLVSAGDRITLTCKASQSVTNDVAWYQQKPGQSPKLLIYYASNRYTGVPDRFTGSGYGTDFTFTISTVQAEDLAVYFCQQDYRSPWTFGGGTKLEI | ~0.1 | –
